Substitutions are numbered along the chain they refer to.

Sequences and labels used below:
B1: VHH104B1 (VHH)
VHH: EVQLVESGGGLVQPGGSLRLFCAASRSIFNINIMGWYRQAPGKQREWLASITSGGSTFYADSVKDRFTISRDSVKNTVYLQMNSLKPEDTAAYYCNRYRSVPLNTVYPWGQGTLVTVSS
B2: VHH67B1 (VHH)
VHH: QVQLVESGGGLVQAGGSLRLSCAASARIFNSYAVAWFRQTPGKEREFVASISWSGGSTNYADSVKGRFTISRDNAKNTVFLQMNSLKPADTAVYYCAADRNYYPSVLGKYTYWGQGTQVTVSS
B3: VHH72B1 (VHH)
VHH: EVQLVESGGGLVQAGGSLRLSCAASGLTFRNYAMAWFRQAPGKEREFVAGITWGGGLTHYVDSVKGRFTISRDNGKNTVYLQMNSLKSEDTAVYYCAGKTQGSTWYHLTPDGYDYWGQGTQVTVSS
B4: VHH97B1 (VHH)
VHH: QVQLVESGGGLAQAGGSLRLSCAASGRTFSNDDMAWFRQAPGKEREFVAHIDRNAASTNYADSVKGRFTISRDNAKNTVYLQMTRLKPEDTAVYYCAADPDHFGTTWYQQYTYWGPGTQVTVSS
B5: VHH86B1 (VHH)
VHH: QVQLVESGGGLMQAGGSLRLSCALSRGIFSAYAMGWFRQVQGKEREFVSGISRSGSTTDYVDTAKGRFTISRDNARDTVYLQMNSLKPEDTAVYYCAAVTGTFPSSTYHNANAYHHWGQGTQVTVSS
B6: VHH54B1 (VHH)
VHH: QVQLVESGGGLVQAGGSLRLSCAASGGPFSGYVMGWFRQVSGKEREFVAGITGISSTYFADSVKGRFTISRDNAKNMVYLQMNSLKPEDTAVYYCAAVNSFGVIPTSPNGMDYWGKGTLVTVSS
B7: VHH32B1 (VHH)
VHH: EVQLVESGGGLVQPGGSLRLSCAASGFTFQNYAMSWLRKAPGEGLEWVSVINSGGGSTLYADSVKGRFTISRDNAKNTLYLQMHSLKSEDTAVYFCAKRRDDSTFGSLLYTHRGQGTQVTVSS
B8: VHH136B1 (VHH)
VHH: QVQLQESGGGLVQAGGSLRLSCAAPGRYAVGWFRQAPGKEYEFVAAITVSGGSKYYEDSVKGRFTISRDNAKNTVYLEMNSLKAEDTAVYYCAARTPKFGSGWYNRRGEYDYWGQGTQVTVSS
B9: VHH172B1 (VHH)
VHH: B8 VHH with Q5V, T120A
B10: VHH58B1 (VHH)
VHH: B8 VHH with Q5V, T65A, E78Q
B11: VHH108B1 (VHH)
VHH: EVQLVESGGGLVQPGGSLTLSCTASGFRFSDRSMGWYRQAPGKQRELVAAITVGGSTNYADSVKGRFTISRDNAKNTVYLQMNSLKPEDTALYYCNRRYPPDDYWGQGTQVTVSS
B12: VHH115B1 (VHH)
VHH: QVQLVESGGGLVQAGGSLRLSCLASGRTSNYFMGWFRQAPGKEREFVAAISRSGGGTWYADSVKGRFAISRDNAKNTVNLQMNSLKREDTAVYYCAADRRTGTSVYTVDEYDYWGQGTQVTVSS
B13: VHH25B1 (VHH)
VHH: QVQLQESGGALVQPGGSLRLSCVVSGFTSDYFAIGWFRQAPGKEREGVSCIGSSDGSTIYSDSVKGRFTISRDNAKNTVYLQMNSLKPEDTGVYYCALDRGRRTIIGYACYATMKYWGKGTPVTVSS
B14: VHH50B1 (VHH)
VHH: QVQLVESGGGLVQAGGSLRLSCAASGRAFSRYSMGWFRQAPGKEREFVAANYWSNGWTDYADTVKGRFSISRDNAKNTVYLQMNSLKPEDTAVYYCAGRSSSIPSADVVGYDYWGQGTQVTVSS
B15: DGL541 (bispecific antibody, V domains shown)
V domain 1: QVQLVESGGGLVQAGGSLRLSCAASGRTFRTYAMGWFRQAPGKDREVVGIAAWKVASTYYVDYGDSVRGRFTISRDDAKSTVYLQMNNLMPEDTAVYYCAAGAFRTDWRSYAYWGQGTQVTVEP
V domain 2: QVQLVESGGGLVQAGGSLRLSCAASGRTFSSYAMGWFRQAPGKEREFVSAISWSGLSTYYVESVQGRFTISRDNAKNTVYLQMNSLKPEDTAVYYCAASRIYTNYVARSYEYDDWGQGTQVTVEP
B16: DGL579 (bispecific antibody, V domains shown)
V domain 1: QVQLVESGGGLVQAGGSLRLSCAASRSISSFNEMAWYRQAPGEQRELVATIVSTVGFTNYADSVKGRFTISRDNAKNTVYLQMNSLKAEDTAVYYCNARRISTDYWGQGTQVTVEP
V domain 2: B15 V domain 2
B17: DGL478 (bispecific antibody, V domains shown)
V domain 1: B8 VHH with Q5V, T65A, E78Q, S122E, S123P
V domain 2: QVQLVESGGGLVQAGGSLRLSCAASGRIFSAYRMGWFRQAPGKEREFVAGITWRGQTTYYAASVKGRFTISKDNAKKTVYLQMNSLKPEETAVYYCAVETNGLGRWDRPSEYDYWGQGTQVTVEP
B18: DGL503 (bispecific antibody, V domains shown)
V domain 1: B3 VHH with S125E, S126P
V domain 2: B17 V domain 2
B19: DGL552 (bispecific antibody, V domains shown)
V domain 1: QVQLVESGGGLVQAGGSLRLSCAASGRTFGTYAMGWFRQAPGKERDFVARISNSGAFTHYADSVKGRFTISRDNAKNTVYLHMNSLENGDTAAYYCVATRGTNSAYYTRSTMYEYWGQGTQVTVEP
V domain 2: B17 V domain 2
B20: DGL448 (bispecific antibody, human IgG1, lambda)
heavy 1: not shown
heavy 2: EVQLVESGGGLVQPGGSLRLSCAASGFTFSTYDMHWVRQATGKGLEWVSLIDTAGDTYYPDSVKGRFTISRENAKNSLYLQMNSLRAGDTAVYYCAREGWGYFDYWGQGALVTVSSASTKGPSVFPLAPSSKSTSGGTAALGCLVKDYFPEPVTVSWNSGALTSGVHTFPAVLQSSGLYSLSSVVTVPSSSLGTQTYICNVNHKPSNTKVDKKVEPKSCDKTHTCPPCPAPEAAGAPSVFLFPPKPKDTLMISRTPEVTCVVVDVSHEDPEVKFNWYVDGVEVHNAKTKPREEQYNSTYRVVSVLTVLHQDWLNGKEYKCKVSNKALPAPIEKTISKAKGQPREPQVCTLPPSRDELTKNQVSLSCAVKGFYPSDIAVEWESNGQPENNYKTTPPVLDSDGSFFLVSKLTVDKSRWQQGNVFSCSVMHEALHNRFTQKSLSLSPG
light: QSALTQPPSVSGSPGQSVTISCTGTSSDVGSYNRVSWYQQPPGTAPKLMIYEVSNRPSGVPDRFSGSKSGNTASLTISGLQAEDEADYYCSLYTGSSTVVFGGGTKVTVLGQPKAAPSVTLFPPSSEELQANKATLVCLISDFYPGAVTVAWKADSSPVKAGVETTTPSKQSNNKYAASSYLSLTPEQWKSHRSYSCQVTHEGSTVEKTVAPTECS
B21: DGL585 (bispecific antibody, V domains shown)
V domain 1: QVQLVESGGGLVQAGGSLRLSCAASGRTFSSYVMGWFRQAPGQEREFVAAIMRNGIMTYYADSVKGRFTISRDNAKNTVYLQMNTLKPDDTAVYYCAAASRVGVSISQSSSYTSWGQGTQVTVEP
V domain 2: QVQLVESGGGLVRPGGSLRLSCAASGFTFSSNGMHWFRQAPGKGLEWVSSIGSGGTSIYYADSVKGRFTISRDNAKNTLYLQMNSLKSDDTAVYYCSKEVTGATRGQGTQVTVEP

In the first test the target is T1, cyno IL-12RB1 with C-terminal FLAG tag, transiently expressed on HEK-293T cells (cyno, UniProt A0A2K5VWV1 24-662).
T1 construct: whole, on cells
Put plainly: FACS, periplasmic extract, HEK-293T. (In general: A flow cytometer gives signals particle by particle.)
Molecule B1 showed an FOB of 161 fold.

In the case of B2, the FOB turned out to be 82 fold.

Take B3: the FOB was found to be 120 fold.

On to B4, for which the FOB was determined as 99 fold.

In turn, B5 yielded an FOB of 64 fold.

The molecule B6 gave an FOB of 19 fold.

Turning to B7, the FOB came out at 129 fold.

Regarding B8, the FOB is 88 fold.

In turn, B9 gave an FOB of 50 fold.

Regarding B10, the FOB turned out to be 88 fold.

Take B11: the FOB stood at 184 fold.

The molecule B12 registered an FOB of 62 fold.

The molecule B13 came in with an FOB of 121 fold.

B14 returned an FOB of 106 fold.

The target in another test is T2, human IL-12RB1 with C-terminal FLAG tag, transiently expressed on HEK-293T cells (human, UniProt P42701 24-662).
T2 construct: whole, on cells
As to the kind of experiment: FACS, periplasmic extract, HEK-293T.
For the molecule B1, the FOB was 152 fold.

B2 showed an FOB of 88 fold.

In the case of B3, the FOB was found to be 117 fold.

Regarding B4, the FOB worked out at 133 fold.

The molecule B5 came in with an FOB of 104 fold.

Take B6: the FOB was determined as 43 fold.

In the case of B7, the FOB came out at 78 fold.

With B8, the FOB amounted to 80 fold.

The molecule B9 had an FOB of 75.1 fold.

B10 came in with an FOB of 82 fold.

B11 gave an FOB of 260 fold.

The molecule B12 gave an FOB of 101 fold.

The molecule B13 registered an FOB of 160 fold.

With B14, the FOB turned out to be 132 fold.

Another test addresses T3, human IL-12Rβ1-his (Acro Biosystems), biotinylated (human, UniProt P42701 24-545, biotinylated).
T3 construct: bought; captured on Neutravidin in the ELISA; also called Bio-huIL-12Rβ1-His
Put plainly: ELISA, periplasmic extract. Background: ELISA stands for enzyme-linked immunosorbent assay.
As to B1, the OD450 nm was 2.97.

Consider B2, for which the OD450 nm amounted to 2.93.

The molecule B3 showed an OD450 nm of 1.98.

B4 registered an OD450 nm of 0.409.

Molecule B5 showed an OD450 nm of 0.422.

Take B6: the OD450 nm turned out to be 0.822.

In turn, B7 showed an OD450 nm of 1.28.

B8 registered an OD450 nm of 2.84.

Consider B9, for which the OD450 nm is 3.14.

B10 came in with an OD450 nm of 3.03.

Turning to B11, the OD450 nm was 2.73.

B12 gave an OD450 nm of 1.9.

As to B13, the OD450 nm is 0.479.

Consider B14, for which the OD450 nm is 0.151.

The target of the next test is human IL-12 receptor (IL-12Rβ1 and IL-12Rβ2) on HEK-Blue IL-12 cells (human, UniProt P42701 24-662; Q99665 24-862). As to the kind of experiment: cell-based or functional assay.
Chain of human IL-12 receptor (IL-12Rβ1 and IL-12Rβ2) on HEK-Blue IL-12 cells (Q99665 24-862, chain 2 of 2, other chains not shown): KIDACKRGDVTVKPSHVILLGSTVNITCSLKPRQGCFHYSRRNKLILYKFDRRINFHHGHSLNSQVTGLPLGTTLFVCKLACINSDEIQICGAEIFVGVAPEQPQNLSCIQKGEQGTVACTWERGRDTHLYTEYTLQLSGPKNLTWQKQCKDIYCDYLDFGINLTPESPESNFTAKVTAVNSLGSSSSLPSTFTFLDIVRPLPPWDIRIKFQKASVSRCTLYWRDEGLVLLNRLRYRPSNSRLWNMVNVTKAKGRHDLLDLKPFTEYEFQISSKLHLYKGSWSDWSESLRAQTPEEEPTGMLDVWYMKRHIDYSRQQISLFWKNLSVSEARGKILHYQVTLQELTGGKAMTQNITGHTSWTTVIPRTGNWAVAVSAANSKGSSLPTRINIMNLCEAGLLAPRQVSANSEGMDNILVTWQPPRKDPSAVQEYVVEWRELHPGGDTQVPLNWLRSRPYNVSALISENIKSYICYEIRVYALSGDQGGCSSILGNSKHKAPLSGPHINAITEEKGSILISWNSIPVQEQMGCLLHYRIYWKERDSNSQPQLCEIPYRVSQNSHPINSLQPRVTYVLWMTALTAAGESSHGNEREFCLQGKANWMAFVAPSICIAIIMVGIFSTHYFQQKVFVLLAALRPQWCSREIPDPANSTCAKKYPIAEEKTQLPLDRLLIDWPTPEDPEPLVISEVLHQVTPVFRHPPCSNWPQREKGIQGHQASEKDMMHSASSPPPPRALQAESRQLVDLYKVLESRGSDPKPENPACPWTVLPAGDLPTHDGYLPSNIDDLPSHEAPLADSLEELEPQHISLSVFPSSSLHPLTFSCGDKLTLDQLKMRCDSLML
For B15, the “Max Absorbance” value came out at 0.37.

Take B16: the “Max Absorbance” value stood at 0.36.

Broadly, the EC50 is the concentration that produces a half-maximal response. Higher therefore signals a need for much substance. With B17, the EC50 was 4e-09 M (implied) and the “Max Absorbance” value came out at 0.4.

Regarding B18, the “Max Absorbance” value is 0.35.

As for B19, the EC50 is greater than 100 nM and the “Max Absorbance” value was 0.4.

As for B20, the EC50 was 1e-09 M (implied) and the “Max Absorbance” value came to 0.39.

Turning to B21, the EC50 is 3.2e-09 M (implied) and the “Max Absorbance” value turned out to be 0.37.

Source of the values: patent US20250019450A1 (DIAGONAL THERAPEUTICS, published 2025).
